# Results as given in patent publication US20260098064A1 (PENN STATE RESEARCH FOUNDATION, published 2026).
# Residue numbers refer to the chain shown, from its start. Numbers in names are those of the source.
# B1: LanM_013 (Methyloligella sp. GL2 LanM, expressed construct; signal peptide removed and N-terminal Met added) (other)
# chain: MGKAADAIQALDPDKDGTIDLNEAKAGAKAVFEKINPDGDGTLEVKELKGRLTKKELDAADPDNDGTLDMQEYEAVVTKQFELANPDNDGTVDEKELKTKEGKKLLKLIY
# notes: Monomer
# B2: Hans-LanM (lanmodulin from Hansschlegelia quercus, wild type, lacking signal peptide, as expressed in this study) (other)
# chain: ASGADALKALNKDNDDSLEIAEVIHAGATTFTAINPDGDTTLESGETKGRLTEKDWARANKDGDQTLEMDEWLKILRTRFKRADANKDGKLTAAELDSKAGQGVLVMIMK
# notes: also called LanM_002; wt
# B3: R100K-Hans-LanM (other)
# chain: B2 chain with R77K
# notes: Monomer; also called Hans-LanM(R100K); R100K variant
# B4: Mex-LanM (lanmodulin from Methylorubrum extorquens AM1) (other)
# chain: APTTTTKVDIAAFDPDKDGTIDLKEALAAGSAAFDKLDPDKDGTLDAKELKGRVSEADLKKLDPDNDGTLDKKEYLAAVEAQFKAANPDNDGTIDARELASPAGSALVNLIR
# notes: also called LanM_001; M. extorquens LanM
# B5: LanM_012 (Xanthobacter flavus LanM, with signal peptide removed) (protein)
# chain: MLTGKEFLRKYNKDKDSTVEIVEAIDLGTKVFKAINPDKDKTLEAAETKGRLSDEDWAQFNKDGDKTLELDEWLIIVRKRFNDADANKDGKLTEAELDAPAGQQLILLIAK
# Legend:
# [1] = target: the molecule itself; test: S75 gel filtration during purification, no Ca(II) included; self-association
# Description: The procedures used for expression in E. coli and purification of LanM_013 were identical to those used for Mex-LanM, except that no Ca(II) was included in the gel filtration step. […] The elution volume of the protein from the S75 column was consistent with a monomer. The purification yielded 80 mg LanM_013 from 2 L culture (40 mg/L).
# [2] = analytical SEC (Superdex S75); Hans-LanM with 3.0 equiv. Nd^III
# [3] = target: the molecule itself; test: ITC, dimer dissociation model; Dy^III-bound Hans-LanM
# Description: (§1) Isothermal titration calorimetry. The dissociation constants for the dimers of apo, La^III-bound, and Dy^III-bound Hans-LanM were determined by dilutive additions of a concentrated protein stock, followed using ITC on a TA Instruments Low-volume Auto Affinity ITC. The syringe contained 300 μM protein (apo or 2 equiv. Dy^III bound) or 150 μM or 540 μM (2 equiv. La^III bound), and the cell contained 185 μL of a matched buffer (30 mM MOPS, 100 mM KCl, pH 7.0). Titrations were carried out at 30° C. Titrations consisted of a first 0.2 μL injection followed by 17×2 μL injections, unless otherwise noted, with stirring at 125 rpm and 180 s equilibration time between injections. The heats were fitted using NanoAnalyze using the “Dimer Dissociation” model, yielding the dimer dissociation constant (Kdimer), enthalpy of dissociation (ΔH), and entropy of dissociation (ΔS).
# [4] = analytical SEC (Superdex S75); Hans-LanM with 3.0 equiv. Sm^III
# [5] = analytical SEC (Superdex S75); Hans-LanM with 3.0 equiv. Dy^III
# [6] = target: the molecule itself; test: ITC, dimer dissociation model, buffer with 5% glycerol; Dy-bound wt Hans-LanM
# Description: as §1
# (§2) Table 21. Thermodynamics parameters for WT and R100K Hans-LanM, obtained by fitting ITC thermograms to the dimer dissociation model. These experiments were carried out similarly to those shown in Table 18, except that 5% glycerol was present in the buffer.
# [7] = analytical SEC (Superdex S75); Hans-LanM with 3.0 equiv. Gd^III
# [8] = target: the molecule itself; test: ITC, dimer dissociation model; apo Hans-LanM
# Description: as §1
# [9] = target: the molecule itself; test: ITC, dimer dissociation model, 5% glycerol; apo wt Hans-LanM; unit not printed (Table 18: kcal/mol)
# Description: as §1, §2
# [10] = target: the molecule itself; test: ITC dilution of 300 µM protein, dimer dissociation model (Kdimer); apo Hans-LanM; 30 mM MOPS, 100 mM KCl, pH 7.0, 30 C
# Description: as §1
# [11] = analytical SEC (Superdex S75); Hans-LanM (590 µM) with 3.0 equiv. La^III
# [12] = target: the molecule itself; test: ITC, dimer dissociation model, 5% glycerol; Dy-bound wt Hans-LanM; unit not printed (Table 18: kcal/mol)
# Description: as §1, §2
# [13] = target: the molecule itself; test: ITC and SEC-MALS estimate; La^III-bound against Dy^III-bound Hans-LanM
# Description: (§3) To provide further support for preferential dimerization in the presence of physiologically relevant LREs, RE complexes of Hans-LanM were analyzed using multi-angle light scattering (MALS) (FIG. 2a, FIG. 9). The La^III, Nd^III, and Gd^III complexes have MWs of 22-25 kDa, indicative of dimers, but MWs decrease starting with Tb^III and continue to Dy^III and Ho^III, at ˜15 kDa (Table 17), in agreement with the SEC data. Ca^II-bound Hans-LanM also indicated a MW of 14.7 kDa. […] The Kd for dimerization (Kdimer) of apo-, La^III-bound, and Dy^III-bound Hans-LanM was determined by isothermal titration calorimetry (ITC) (FIG. 10-12, Table 18). […] Thus, La^III favors Hans-LanM's dimerization by >100-fold over Dy^III.
# (§4) Isothermal titration calorimetry. The dissociation constants for the dimers of apo, La^III-bound, and Dy^III-bound Hans-LanM were determined by dilutive additions of a concentrated protein stock, followed using ITC on a TA Instruments Low-volume Auto Affinity ITC. The syringe contained 300 μM protein (apo or 2 equiv. Dy^III bound) or 150 μM or 540 μM (2 equiv. La^III bound), and the cell contained 185 μL of a matched buffer (30 mM MOPS, 100 mM KCl, pH 7.0). Titrations were carried out at 30° C. Titrations consisted of a first 0.2 μL injection followed by 17×2 μL injections, unless otherwise noted, with stirring at 125 rpm and 180 s equilibration time between injections. […]
# [14] = analytical SEC (Superdex S75); Hans-LanM with 3.0 equiv. Tb^III
# [15] = target: the molecule itself; test: La^III-bound Hans-LanM; no monomerization seen by ITC; upper limit estimated from SEC-MALS peak concentration (FIG. 12)
# Description: as §3, §4
# [16] = target: the molecule itself; test: ITC, dimer dissociation model, 5% glycerol; Dy-bound wt Hans-LanM; unit not printed (Table 18: cal/mol/K)
# Description: as §1, §2
# [17] = analytical SEC (Superdex S75); Hans-LanM with 3.0 equiv. Eu^III
# [18] = target: the molecule itself; test: ITC, dimer dissociation model, buffer with 5% glycerol; apo wt Hans-LanM
# Description: as §1, §2
# [19] = analytical SEC (Superdex S75); Hans-LanM with 3.0 equiv. Ho^III
# [20] = target: the molecule itself; test: ITC dilution of 300 µM protein, dimer dissociation model (Kdimer); Hans-LanM with 2 equiv. Dy^III; 30 mM MOPS, 100 mM KCl, pH 7.0, 30 C
# Description: as §1
# [21] = target: the molecule itself; test: ITC, dimer dissociation model, 5% glycerol; apo wt Hans-LanM; unit not printed (Table 18: cal/mol/K)
# Description: as §1, §2
# [22] = target: the molecule itself; test: ITC, dimer dissociation model, 5% glycerol; Dy-bound R100K-Hans-LanM; unit not printed (Table 18: kcal/mol); ITC dimer dissociation model, 5% glycerol; Dy-bound R100K
# Description: as §1, §2
# [23] = target: the molecule itself; test: ITC, dimer dissociation model, 5% glycerol; Dy-bound R100K-Hans-LanM; unit not printed (Table 18: kcal/mol)
# Description: as §1, §2
# [24] = target: the molecule itself; test: ITC, dimer dissociation model, buffer with 5% glycerol; La-bound R100K-Hans-LanM; ITC dimer dissociation model, 5% glycerol; La-bound R100K
# Description: as §1, §2
# [25] = target: the molecule itself; test: ITC, dimer dissociation model, 5% glycerol; Dy-bound R100K-Hans-LanM; unit not printed (Table 18: cal/mol/K)
# Description: as §1, §2
# [26] = target: the molecule itself; test: ITC, dimer dissociation model, 5% glycerol; apo R100K-Hans-LanM; unit not printed (Table 18: cal/mol/K)
# Description: as §1, §2
# [27] = target: the molecule itself; test: ITC, dimer dissociation model, 5% glycerol; La-bound R100K-Hans-LanM; unit not printed (Table 18: cal/mol/K)
# Description: as §1, §2
# [28] = target: the molecule itself; test: ITC, dimer dissociation model, 5% glycerol; La-bound R100K-Hans-LanM; unit not printed (Table 18: kcal/mol)
# Description: as §1, §2
# [29] = target: the molecule itself; test: ITC, dimer dissociation model, buffer with 5% glycerol; apo R100K-Hans-LanM; ITC dimer dissociation model, 5% glycerol; apo R100K
# Description: as §1, §2
# [30] = target: the molecule itself; test: ITC, dimer dissociation model, 5% glycerol; apo R100K-Hans-LanM; unit not printed (Table 18: kcal/mol); ITC dimer dissociation model, 5% glycerol; apo R100K
# Description: as §1, §2
# [31] = target: the molecule itself; test: ITC, dimer dissociation model, 5% glycerol; apo R100K-Hans-LanM; unit not printed (Table 18: kcal/mol)
# Description: as §1, §2
# [32] = target: the molecule itself; test: ITC, dimer dissociation model, 5% glycerol; La-bound R100K-Hans-LanM; unit not printed (Table 18: kcal/mol); ITC dimer dissociation model, 5% glycerol; La-bound R100K
# Description: as §1, §2
# [33] = target: the molecule itself; test: ITC, dimer dissociation model, buffer with 5% glycerol; Dy-bound R100K-Hans-LanM; ITC dimer dissociation model, 5% glycerol; Dy-bound R100K
# Description: as §1, §2
# [34] = target: the molecule itself; test: SEC-MALS of apo, Ca^II, La^III, Nd^III and Dy^III Mex-LanM (Table 17); self-association
# Description: In-line size-exclusion chromatography and multi-angle light scattering (SEC-MALS). SEC-MALS experiments were conducted using an Agilent 1260 Infinity II HPLC system equipped with an autosampler and fraction collector, and the Wyatt SEC hydrophilic column had 5 μm silica beads, a pore size of 100 Å, and dimensions of 7.8×300 mm. Wyatt Technology DAWN MALS and Wyatt Optilab Refractive Index (RI) detectors were used for analyzing the molar mass of peaks that eluted from the column. The SEC-MALS system was equilibrated for 5 h with Buffer B. The system was calibrated with bovine serum albumin (BSA, monomer MW: 66 kDa) in the same buffer and normalization and alignment of the MALS and RI detectors were carried out. A volume of 15 μL of each sample was injected at a flow rate of 0.8 mL/min with a chromatogram run time of 25 min. Data were analyzed using the ASTRA software (Wyatt). When SAXS analysis was desired, a second run was performed with 150 μL protein (˜4 mg/mL) injected, and 200 μL fractions of the main peak were collected. BioSAXS data were subsequently collected in triplicate.
# Table 17. Characterization of Hans- and Mex-LanM metal complexes using SEC-MALS. The concentrations of the protein samples loaded to the column were: 1.2-1.5 mg/mL for apo- and RE-bound Hans-LanM, 3 mg/mL for Ca^II-bound Hans-LanM, and 3 mg/mL for Mex-LanM. […]
# [35] = size exclusion chromatography; 20 µM LanM_012 with 4.0 equiv. Dy^III; conditions: 20 µM protein, 5% glycerol, pH 7.0
# [36] = size exclusion chromatography; 20 µM LanM_012 with 4.0 equiv. La^III; conditions: 20 µM protein, 5% glycerol, pH 7.0
protein,measurement,setting,value
B1,binding result,[1],no binding
B2,"Apparent MW (SEC, kDa)",[2],27.8 kDa
same,ΔG of dimer dissociation,[3],5.9 kcal/mol
same,ΔH of dimer dissociation,[3],-5.3 kcal/mol
same,ΔS of dimer dissociation,[3],-37 cal/mol/K
same,"Apparent MW (SEC, kDa)",[4],26.1 kDa
same,"Apparent MW (SEC, kDa)",[5],20 kDa
same,Kd,[6],40 µM
same,"Apparent MW (SEC, kDa)",[7],23 kDa
same,ΔG of dimer dissociation,[8],5.5 kcal/mol
same,ΔH of dimer dissociation,[8],25.4 kcal/mol
same,ΔS of dimer dissociation,[8],66 cal/mol/K
same,ΔG of dimer dissociation,[9],6.3 kcal/mol
same,ΔH of dimer dissociation,[9],24 kcal/mol
same,Kd,[10],117 µM
same,"Apparent MW (SEC, kDa)",[11],27.8 kDa
same,ΔG of dimer dissociation,[12],6.1 kcal/mol
same,ΔH of dimer dissociation,[12],-5 kcal/mol
same,"fold enhancement of dimerization, La^III versus Dy^III",[13],100 fold
same,"Apparent MW (SEC, kDa)",[14],21.3 kDa
same,Kd,[15],< 0.4 µM
same,ΔS of dimer dissociation,[16],-36 cal/mol/K
same,"Apparent MW (SEC, kDa)",[17],25.5 kDa
same,Kd,[18],100 µM
same,"Apparent MW (SEC, kDa)",[19],17.9 kDa
same,Kd,[20],60 µM
same,ΔS of dimer dissociation,[21],61 cal/mol/K
B3,ΔH of dimer dissociation,[22],-16 kcal/mol
same,ΔG of dimer dissociation,[23],5.9 kcal/mol
same,Kd,[24],14 µM
same,ΔS of dimer dissociation,[25],-73 cal/mol/K
same,ΔS of dimer dissociation,[26],37 cal/mol/K
same,ΔS of dimer dissociation,[27],-84 cal/mol/K
same,ΔG of dimer dissociation,[28],7 kcal/mol
same,Kd,[29],82 µM
same,ΔH of dimer dissociation,[30],16 kcal/mol
same,ΔG of dimer dissociation,[31],6 kcal/mol
same,ΔH of dimer dissociation,[32],-19 kcal/mol
same,Kd,[33],54 µM
B4,binding result,[34],no binding (tested: 3 mg/mL loaded)
B5,apparent molecular weight (SEC),[35],an apparent molecular weight of ˜29.1 kDa
same,apparent molecular weight (SEC),[36],an apparent molecular weight of ˜29.1 kDa
